Test results taken from patent EP2848693A1, “Concatenation of halogenated alkenyl diphosphate derivatives” (LANXESS Deutschland GmbH, priority 2013, dated 2015).

Tests used:
[1] = target: T1, E. coli Undecaprenyldiphosphatsynthase (EcUPPS) (Escherichia coli, UniProt P60472); assay: MTP phosphate detection assay (diphosphate release, BIOMOL Green), substrate kinetics; type: biochemical; details: for rel. kcat Km^-1: relative to natural substrate FPP (100 %)
T1 construct: made in house; host or cells: E. coli
T1 sequence (P60472 1-253): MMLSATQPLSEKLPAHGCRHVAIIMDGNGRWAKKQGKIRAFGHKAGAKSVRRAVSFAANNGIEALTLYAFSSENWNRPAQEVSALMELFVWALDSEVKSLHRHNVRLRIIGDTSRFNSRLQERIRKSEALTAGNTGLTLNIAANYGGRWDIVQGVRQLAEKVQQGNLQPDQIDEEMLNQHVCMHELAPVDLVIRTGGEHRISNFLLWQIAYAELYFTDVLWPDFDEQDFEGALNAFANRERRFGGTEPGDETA
Description: (§1) Cis-Prenyltransferasen entlassen während der Reaktion Diphosphat nach jedem Kondensationsschritt. Dies ist der Ansatzpunkt, der gewählt wurde, um unabhängig von der Art des Produktes den Grundumsatz zu detektieren. […] Die Dreifachbestimmungen der Enzymreaktionen wurden mit 100 µL BIOMOL Green™ Detektionsreagenz gestoppt und nach weiteren 20 min in einem Mikrotiterplattenspektrophotometer bei 620 nm gemessen. Zur Kontrolle erfolgte für jede Substratkonzentration eine Messung mit denaturiertem Enzym zu den unterschiedlichen Zeitpunkten um Selbsthydrolyse der Substrate zu berücksichtigen. Zur Quantifizierung wurde eine Pi-Standardkurve in Doppelbestimmung mitgeführt. Die Verdünnung des KPi-Standards erfolgte in Assaypuffer, wurde mit 100 µL BIOMOL Green™ Detektionsreagenz nach Ablauf der Enzymreaktion in den Test-Wells detektiert und zeitgleich nach weiteren 20 min bei 620 nm gemessen. Eine lineare Beziehung zwischen A620 nm und Pi-Konzentration ermöglichte eine Quantifizierung zwischen 80 µM-0 µM Pi.
(§2) Die Bestimmung der FPP-Kinetiken der EcUPPS sowie der ThkCPT erfolgte unter analogen Bedingungen der Bestimmung von IPP. […] Die Enzymreaktion wurde nach 60 s, 120 s, 180 s, 300 s, 600 s, 900 s oder 1200 s durch Zugabe von 100 µL BIOMOL Green™ Detektionsreagenz gestoppt und wie oben beschrieben gemessen.
(§3) Die Assaybedingungen wurden wie in Beispiel 3 beschriebenen gewählt. […] Variation von 500 - 0 µM im Fall der Elongationssubstrate erfolgte konstant mit 10 µM FPP (jedes Homoallyldiphosphat möglich).
(§4) Zur Berechnung der Umsatzraten in nkat·mg^-1 wurde verwendet: ν0 = ((A620-ABlank)⋅1000)/(2⋅m⋅t⋅[E]) [formula] v0 Anfangsgeschwindigkeit der Diphosphathydrolyse (nkat·mg^-1) A620 Absorption bei 620 nm ABlank Absorption der Kontrolle bei 620 nm m Anstieg der Phosphatstandardkurve (µM^-1) t Dauer der Enzymreaktion (s) [E] Enzymkonzentration (mg·L^-1)
(§5) Die Auswertung erfolgte durch nicht-lineare Regression nach der Hill-Gleichung mit Sigma-Plot 11. […] Substratkonzentration (µM) h Hill-Koeffizient

[2] = target: T2, Thermococcus kodakaraensis cis-Prenyltransferase (ThkCPT) (Thermococcus kodakarensis, UniProt Q5JGE1); assay: as above; type: biochemical; details: elongation substrate varied, starter FPP 10 µM, room temperature
T2 construct: made in house; host or cells: E. coli
T2 sequence (Q5JGE1 1-264): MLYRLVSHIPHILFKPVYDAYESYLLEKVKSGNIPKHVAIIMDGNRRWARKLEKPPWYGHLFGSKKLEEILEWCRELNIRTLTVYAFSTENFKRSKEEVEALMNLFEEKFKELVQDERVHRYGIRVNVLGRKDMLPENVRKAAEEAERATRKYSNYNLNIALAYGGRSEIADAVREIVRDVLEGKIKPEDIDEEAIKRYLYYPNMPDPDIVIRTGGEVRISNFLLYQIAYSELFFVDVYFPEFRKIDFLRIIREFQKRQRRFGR
Description: as §1, §2, §3, §4, §5

EcUPPS = target: T3, EcUPPS (Escherichia coli, UniProt P60472); assay: Product chain length by HPLC with fluorescent starter substrate 110; type: biochemical; details: 10 µM EcUPPS, 110 as starter substrate, HPLC of hydrolysed products
T3 construct: made in house; host or cells: E. coli
Description: (§6) Zur Bestimmung der Produktkettenlängen wurden 500 µL Enzymassays in MS-Gläschen durchgeführt. […] Die Extraktion der Polyprenyldiphosphate erfolgte mit 500 µL 1-Butanol. Die Butanolphase wurde in ein neues Glas überführt und unter Stickstoffstrom von dem Lösungsmittel befreit. Die Hydrolyse der Diphosphate zum Polyprenol erfolgte durch Zugabe von 200 µL Hydrolysepuffer (20% Isopropanol, 4,4 Units/mL saure Phophatase aus Kartoffeln, 0,1 % Triton X-100, 50 mM Natriumacetat (pH 4,7)) und wurde über Nacht bei 37 °C inkubiert. Die Polyprenole wurden mit 500 µL nHexan extrahiert und zur weiteren DC- oder HPLC-Analyse vorbereitet. Für DC-Experimente und LC/ESI-MS-Analysen wurde die nHexan-Phase in ein neues Glas überführt, das Lösungsmittel abgedampft und die Produkte erneut in 100 µL nHexan resuspendiert um eine Aufkonzentrierung zu erreichen. Für HPLC-Analysen mit 110 ((2E,6E)-8-O-(N-methyl-2-aminobenzoyl)-3,7-dimethyl-2,6-octandien-1-diphosphat) als Startersubstrat wurde die nHexan-Phase 1:3 verdünnt in das HPLC-System mittels Autosampler injiziert.
Die HPLC-Analyse der Polyprenole erfolgte an einer Anlage von Merck HITACHI D-7000, wobei als stationäre Phase eine YMC-ODS AQ (150 x 4 mm, 5 µm; YMC Europe GmbH, Dinslaken) Säule verwendet wurde. Die Elution erfolgte mit 1 mL·min^-1 und die Detektion bei 210 nm mit einem UV-VIS Detektor: Merck HITACHI L-7420. […]

ThkCPT = target: T4, ThkCPT (Thermococcus kodakarensis, UniProt Q5JGE1); assay: as above; type: biochemical, Thermococcus kodakaraensis
T4 construct: made in house; host or cells: E. coli
T4 sequence (Q5JGE1 1-264): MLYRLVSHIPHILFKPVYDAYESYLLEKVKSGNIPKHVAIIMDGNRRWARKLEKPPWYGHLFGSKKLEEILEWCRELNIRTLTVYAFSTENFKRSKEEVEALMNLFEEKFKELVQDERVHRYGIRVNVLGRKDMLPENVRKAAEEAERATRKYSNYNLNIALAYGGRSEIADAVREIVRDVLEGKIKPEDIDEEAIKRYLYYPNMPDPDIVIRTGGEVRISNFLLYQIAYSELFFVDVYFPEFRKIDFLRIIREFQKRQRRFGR
Description: as §6
Die HPLC-Analyse der Polyprenole erfolgte an einer Anlage von Merck HITACHI D-7000, wobei als stationäre Phase eine YMC-ODS AQ (150 x 4 mm, 5 µm; YMC Europe GmbH, Dinslaken) Säule verwendet wurde. Die Elution erfolgte mit 1 mL·min^-1 und die Detektion bei 210 nm mit einem UV-VIS Detektor: Merck HITACHI L-7420. Das Injektionsvolumen betrug dabei 5 µL. Die mobile Phase setzte sich aus Laufmittel A (MeOH/H2O/Isopropanol 12:1:8 (v/v/v)) und Laufmittel B (nHexan/Isopropanol 7:3 (v/v)) zusammen. Die Probenaufgabe erfolgte mittels Autosampler (Merck HITACHI L-7250). [drawing 35]
Zur selektiven und vor allem sensitiven Detektion von Polyprenolen kann ein alternatives, fluoreszierendes Startersubstrat verwendet werden, (2E,6E)-8-O-(N-methyl-2-aminobenzoyl)-3,7-dimethyl-2,6-octandien-1-diphosphat (110). Die Analyse erfolgte wie in Beispiel 6 beschrieben. Dabei wurden 3 µL pro Probe injiziert und die Detektion erfolgte über Fluoreszenz: Ex 352 nm / Em 420 nm wobei das Gerät Merck HITACHI L-7480 als Fluoreszenzdetektor verwendet wurde. […]

[3] = substrate: C=C(Br)CCOP(=O)(O)OP(=O)(O)O; assay: MTP phosphate detection assay (diphosphate release, BIOMOL Green), substrate kinetics; type: biochemical, Escherichia coli; details: other: elongation substrate varied 500 - 0 µM, starter FPP constant 10 µM; 22.0 °C
Description: as §1, §2, §3, §4, §5

[4] = substrate: C=C(C)CCO[P@@](=O)(O)OP(=O)(O)O; assay: as above; type: biochemical, Escherichia coli; details: other: elongation substrate varied 500 - 0 µM, starter FPP constant 10 µM; 22.0 °C
Description: as §1, §2, §3, §4, §5

[5] = substrate: C=C(Cl)CCOP(=O)(O)OP(=O)(O)O; assay: as above; type: biochemical, Escherichia coli; details: other: elongation substrate varied 500 - 0 µM, starter FPP constant 10 µM; 22.0 °C
Description: as §1, §2, §3, §4, §5

[6] = substrate: CC(C)=CCC/C(C)=C/CC/C(C)=C/CC/C(C)=C/COP(=O)(O)OP(=O)(O)O; assay: as above; type: biochemical, Escherichia coli; details: other: starter substrate varied 80 - 0 µM, elongation substrate IPP constant 150 µM, 22°C
Description: as §1, §2, §3, §4, §5

[7] = substrate: CC(C)=CCC/C(C)=C/COP(=O)(O)OP(=O)(O)O; assay: as above; type: biochemical, Escherichia coli; details: other: starter substrate varied 80 - 0 µM, elongation substrate IPP constant 150 µM, 22°C
Description: as §1, §2, §3, §4, §5

[8] = substrate: CNc1ccccc1C(=O)OC/C(C)=C/CC/C(C)=C/COP(=O)(O)OP(=O)(O)O; assay: as above; type: biochemical, Escherichia coli; details: other: starter substrate varied 80 - 0 µM, elongation substrate IPP constant 150 µM, 22°C
Description: as §1, §2, §3, §4, §5

[9] = substrate: C=C(C)CCO[P@@](=O)(O)OP(=O)(O)O; assay: purified protein, by the assay type; details: other: elongation substrate varied, starter FPP 10 µM, room temperature
[10] = substrate: C=C(Br)CCOP(=O)(O)OP(=O)(O)O; assay: MTP phosphate detection assay (diphosphate release, BIOMOL Green), substrate kinetics; type: biochemical, Thermococcus kodakaraensis; details: other: elongation substrate varied, starter FPP 10 µM, room temperature
Description: as §1, §2, §3, §4, §5

[11] = substrate: C=C(Cl)CCOP(=O)(O)OP(=O)(O)O; assay: as above; type: biochemical, Thermococcus kodakaraensis; details: other: elongation substrate varied, starter FPP 10 µM, room temperature
Description: as §1, §2, §3, §4, §5

[12] = starter substrate varied, IPP constant 150 µM

With `C=C(Br)CCOP(=O)(O)OP(=O)(O)O` [Br-BPP, 3-Brom-3-Butenyldiphosphat] the kcat ([1]; elongation substrate varied, starter FPP 10 µM) was 0,0004 s^-1, the kcat [2] was 0,0004 s^-1 and the “Kondensationsschritte / Elongationseinheiten” value (EcUPPS) was 2. For the same molecule, the “Kondensationen (Reaktionsprodukte)” value (ThkCPT; 10 µM ThkCPT, 110 as starter substrate, room temperature 25°C) was “mehr als zwei Kondensationen”.

Farnesyldiphosphat [FPP] was tested, and the “rel. kcat Km^-1” value [1] was 100%, the Km ([1]; starter substrate varied 80 - 0 µM, elongation substrate IPP constant 150 µM, 22°C) was 1.8 µM and the kcat [1, 12] was 0,5 s^-1. For the same molecule, the vmax [1, 12] was 17,9 ± 0,4 nkat/mg.

For `CC(C)=CCC/C(C)=C/CC/C(C)=C\COP(=O)(O)OP(=O)(O)O` [Z,E-FPP], the “rel. kcat Km^-1” value [1] was 90%.

`CC(C)=CCC/C(C)=C/CC/C(C)=C/CC/C(C)=C/COP(=O)(O)OP(=O)(O)O` [GGPP, Geranylgeranyldiphosphat] was tested, and the “rel. kcat Km^-1” value [1] was 76%.

`CNc1ccccc1C(=O)OC/C(C)=C/CC/C(C)=C/COP(=O)(O)OP(=O)(O)O` [Substrat 110, (2E,6E)-8-O-(N-methyl-2-aminobenzoyl)-3,7-dimethyl-2,6-octandien-1-diphosphat] was tested, and the “rel. kcat Km^-1” value [1] was 4% and the “Akzeptanz als Startersubstrat der ThkCPT” value (ThkCPT; 65°C) was “als Startersubstrat akzeptiert”.

B1: E. coli Undecaprenyldiphosphatsynthase (EcUPPS) (Escherichia coli K-12) (protein)
chain: MMLSATQPLSEKLPAHGCRHVAIIMDGNGRWAKKQGKIRAFGHKAGAKSVRRAVSFAANNGIEALTLYAFSSENWNRPAQEVSALMELFVWALDSEVKSLHRHNVRLRIIGDTSRFNSRLQERIRKSEALTAGNTGLTLNIAANYGGRWDIVQGVRQLAEKVQQGNLQPDQIDEEMLNQHVCMHELAPVDLVIRTGGEHRISNFLLWQIAYAELYFTDVLWPDFDEQDFEGALNAFANRERRFGGTEPGDETA
notes: made in house; host or cells: E. coli
For B1, the Km [3] was 6.4 µM, the Vmax [3] was 0,02 nkat mg^-1 and the Km [4] was 6.5 µM. The Vmax [4] was 14,4 nkat mg^-1, the kcat [4] was 0,4 s^-1 and the Km [5] was 3.8 µM. The Vmax [5] was 0,03 nkat mg^-1, the Km [6] was 1.9 µM and the Vmax [6] was 14,9 ± 0,3 nkat/mg. For the same molecule, the kcat [6] was 0,4 s^-1, the kcat/Km [6] was 223000 M⁻¹ s⁻¹ and the Km [7] was 48,8 ± 8,3 µM. The Vmax [7] was 11,3 ± 0,7 nkat/mg, the kcat [7] was 0,3 s^-1 and the kcat/Km [7] was 7000 M⁻¹ s⁻¹. For the same molecule, the Km [8] was 5.6 µM, the Vmax [8] was 1,9 ± 0,1 nkat/mg and the kcat [8] was 0,1 s^-1. The kcat/Km [8] was 11000 M⁻¹ s⁻¹.

B2: Thermococcus kodakaraensis cis-Prenyltransferase (ThkCPT) (Thermococcus kodakarensis KOD1) (protein)
chain: MLYRLVSHIPHILFKPVYDAYESYLLEKVKSGNIPKHVAIIMDGNRRWARKLEKPPWYGHLFGSKKLEEILEWCRELNIRTLTVYAFSTENFKRSKEEVEALMNLFEEKFKELVQDERVHRYGIRVNVLGRKDMLPENVRKAAEEAERATRKYSNYNLNIALAYGGRSEIADAVREIVRDVLEGKIKPEDIDEEAIKRYLYYPNMPDPDIVIRTGGEVRISNFLLYQIAYSELFFVDVYFPEFRKIDFLRIIREFQKRQRRFGR
notes: as for B1
For B2, the Km [9] was 14.8 µM, the Vmax [9] was 2,0 nKat mg^-1 and the kcat [9] was 0,07 s^-1. The Km [10] was 54,0 +/- 11,1 µM, the Vmax [10] was 0,01 nKat mg^-1 and the Km [11] was 21,2+/-2,1 µM. The Vmax [11] was 0,01 nKat mg^-1.
